Measured values reported in the supplement of paper PMC9112550, “Optimization of the antimicrobial peptide Bac7 by deep mutational scanning” (BMC Biology, 2022).

These sequences were tested on Escherichia coli TOP10 (assay: shrunken log2 fold change of peptide-encoding DNA abundance (4.5 h post-induction vs induction); higher = less antimicrobial activity (less host growth inhibition)). Details: time post-induction: 4.5 h; library: site-saturation at positions 5, 18, 19, 20.
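Note: peptides expressed intracellularly from a pBAD plasmid library in pooled LB shake-flask culture, induced with 0.3% L-arabinose, DNA abundance read by NGS, three biological replicates, DESeq2 with apeglm shrinkage.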

| Sequence | shrunken log2 fold change |
| --- | --- |
| RRIRWRPPRLPRPRPRPIIVPRP | -0.138 |
| RRIRTRPPRLPRPRPRPTPVPRP | 0.313 |
| RRIRKRPPRLPRPRPRPTALPRP | 0.213 |
| RRIRHRPPRLPRPRPRPSHYPRP | 0.288 |
| RRIRTRPPRLPRPRPRPFMLPRP | -0.706 |
| RRIRRRPPRLPRPRPRPPWEPRP | 0.0894 |
| RRIRCRPPRLPRPRPRPYLAPRP | -0.44 |
| RRIRKRPPRLPRPRPRPVFSPRP | 0.111 |
| RRIRQRPPRLPRPRPRPEEFPRP | -0.0679 |
| RRIRSRPPRLPRPRPRPAMVPRP | -0.274 |
| RRIRPRPPRLPRPRPRPDKFPRP | -0.233 |
| RRIRNRPPRLPRPRPRPFHLPRP | -0.147 |
| RRIRVRPPRLPRPRPRPRAQPRP | 0.126 |
| RRIRMRPPRLPRPRPRPVTFPRP | -0.0159 |
| RRIRRRPPRLPRPRPRPTLNPRP | 0.511 |
| RRIRDRPPRLPRPRPRPQGLPRP | 0.0467 |
| RRIRARPPRLPRPRPRPWKNPRP | -0.145 |
| RRIRVRPPRLPRPRPRPVHRPRP | 0.164 |
| RRIRARPPRLPRPRPRPKTNPRP | 0.436 |
| RRIRMRPPRLPRPRPRPKVMPRP | 0.201 |
| RRIRERPPRLPRPRPRPTVWPRP | 0.217 |
| RRIRGRPPRLPRPRPRPLYLPRP | -0.221 |
| RRIRSRPPRLPRPRPRPANNPRP | -0.367 |
| RRIRVRPPRLPRPRPRPGKFPRP | -0.17 |
| RRIRCRPPRLPRPRPRPTLMPRP | -0.0222 |

| Sequence | shrunken log2 fold change |
| --- | --- |
| RRIRLRPPRLPRPRPRPGNLPRP | -0.137 |
| RRIRFRPPRLPRPRPRPVNPPRP | -0.154 |
| RRIRWRPPRLPRPRPRPKSGPRP | -0.0248 |
| RRIRERPPRLPRPRPRPTWQPRP | 0.0759 |
| RRIRHRPPRLPRPRPRPQTQPRP | -0.145 |
| RRIRHRPPRLPRPRPRPNTEPRP | -0.038 |
| RRIRNRPPRLPRPRPRPMLCPRP | 0.0164 |
| RRIRVRPPRLPRPRPRPHRSPRP | -0.164 |
| RRIRKRPPRLPRPRPRPMSNPRP | -0.00773 |
| RRIRPRPPRLPRPRPRPKSEPRP | 0.197 |
| RRIRARPPRLPRPRPRPNRDPRP | -0.183 |
| RRIRTRPPRLPRPRPRPMMYPRP | -0.00147 |
| RRIRFRPPRLPRPRPRPDWMPRP | -0.0628 |
| RRIRGRPPRLPRPRPRPFYLPRP | -0.0695 |
| RRIRIRPPRLPRPRPRPAIHPRP | -0.475 |
| RRIRWRPPRLPRPRPRPNFPPRP | 0.0284 |
| RRIRFRPPRLPRPRPRPRVFPRP | 0.232 |
| RRIRWRPPRLPRPRPRPYRPPRP | -0.573 |
| RRIRRRPPRLPRPRPRPWGYPRP | -0.275 |
| RRIRVRPPRLPRPRPRPEREPRP | 0.586 |
| RRIRMRPPRLPRPRPRPCIVPRP | -0.0122 |
| RRIRRRPPRLPRPRPRPMAAPRP | 1.15 |
| RRIRTRPPRLPRPRPRPYRMPRP | -0.128 |
| RRIRNRPPRLPRPRPRPDTTPRP | -0.129 |
| RRIRARPPRLPRPRPRPTYTPRP | -0.0355 |

| Sequence | shrunken log2 fold change |
| --- | --- |
| RRIRARPPRLPRPRPRPKMSPRP | 0.126 |
| RRIRGRPPRLPRPRPRPHKQPRP | 0.0331 |
| RRIRYRPPRLPRPRPRPTHVPRP | -0.27 |
| RRIRNRPPRLPRPRPRPTINPRP | -0.515 |
| RRIRSRPPRLPRPRPRPNYTPRP | -0.479 |
| RRIRTRPPRLPRPRPRPMMHPRP | -0.302 |
| RRIRKRPPRLPRPRPRPVHGPRP | 0.0412 |
| RRIRWRPPRLPRPRPRPTNTPRP | -0.284 |
| RRIRYRPPRLPRPRPRPTLKPRP | -0.283 |
| RRIRRRPPRLPRPRPRPSSCPRP | 0.055 |
| RRIRLRPPRLPRPRPRPHWKPRP | 0.0019 |
| RRIRKRPPRLPRPRPRPQQLPRP | 0.0814 |
| RRIRERPPRLPRPRPRPEIQPRP | 0.422 |
| RRIRPRPPRLPRPRPRPQRVPRP | 0.202 |
| RRIRPRPPRLPRPRPRPDLHPRP | -0.316 |
| RRIRMRPPRLPRPRPRPLEGPRP | 0.109 |
| RRIRRRPPRLPRPRPRPHYDPRP | -0.124 |
| RRIRDRPPRLPRPRPRPIEHPRP | -0.172 |
| RRIRVRPPRLPRPRPRPSWKPRP | -0.0781 |
| RRIRIRPPRLPRPRPRPKCIPRP | -0.399 |
| RRIRDRPPRLPRPRPRPEEAPRP | 2.05 |
| RRIRTRPPRLPRPRPRPCSYPRP | -0.129 |
| RRIRLRPPRLPRPRPRPLANPRP | -0.00613 |
| RRIRDRPPRLPRPRPRPSRLPRP | 0.0232 |
| RRIRPRPPRLPRPRPRPDCGPRP | 0.093 |

| Sequence | shrunken log2 fold change |
| --- | --- |
| RRIRVRPPRLPRPRPRPWGKPRP | -0.0952 |
| RRIRQRPPRLPRPRPRPEGHPRP | 0.00489 |
| RRIRLRPPRLPRPRPRPNFKPRP | -0.206 |
| RRIRGRPPRLPRPRPRPRHTPRP | 0.7 |
| RRIRYRPPRLPRPRPRPRFQPRP | -0.201 |
| RRIRSRPPRLPRPRPRPMYRPRP | -0.172 |
| RRIRYRPPRLPRPRPRPHVRPRP | -0.202 |
| RRIRRRPPRLPRPRPRPDYRPRP | 0.0309 |
| RRIRLRPPRLPRPRPRPDMMPRP | -0.295 |
| RRIRNRPPRLPRPRPRPWRAPRP | 0.0962 |
| RRIRVRPPRLPRPRPRPGKCPRP | 0.0804 |
| RRIRNRPPRLPRPRPRPDETPRP | -0.00208 |
| RRIRPRPPRLPRPRPRPKICPRP | -0.0701 |
| RRIRERPPRLPRPRPRPMLCPRP | 0.05 |
| RRIRARPPRLPRPRPRPFMYPRP | -0.225 |
| RRIRNRPPRLPRPRPRPQTFPRP | -0.0594 |
| RRIRARPPRLPRPRPRPFNLPRP | -0.173 |
| RRIRTRPPRLPRPRPRPTMGPRP | 0.0301 |
| RRIRKRPPRLPRPRPRPEQCPRP | 0.025 |
| RRIRPRPPRLPRPRPRPESWPRP | 1.54 |
| RRIRFRPPRLPRPRPRPEQWPRP | -0.156 |
| RRIRMRPPRLPRPRPRPFQDPRP | -0.235 |
| RRIRARPPRLPRPRPRPRFLPRP | 0.371 |
| RRIRSRPPRLPRPRPRPHPYPRP | -0.807 |
| RRIRNRPPRLPRPRPRPFLPPRP | -0.354 |

| Sequence | shrunken log2 fold change |
| --- | --- |
| RRIRMRPPRLPRPRPRPLECPRP | -0.0215 |
| RRIRDRPPRLPRPRPRPIYFPRP | -0.839 |
| RRIRARPPRLPRPRPRPVKLPRP | -0.59 |
| RRIRIRPPRLPRPRPRPMRPPRP | 0.194 |
| RRIRERPPRLPRPRPRPIFDPRP | -0.349 |
| RRIRHRPPRLPRPRPRPKYNPRP | -0.892 |
| RRIRFRPPRLPRPRPRPSYVPRP | -0.501 |
| RRIRMRPPRLPRPRPRPPQEPRP | 0.161 |
| RRIRCRPPRLPRPRPRPTGLPRP | 0.106 |
| RRIRTRPPRLPRPRPRPKRPPRP | -0.165 |
| RRIRARPPRLPRPRPRPNWNPRP | -0.0314 |
| RRIRFRPPRLPRPRPRPINPPRP | -1.08 |
| RRIRFRPPRLPRPRPRPHLCPRP | -0.0692 |
| RRIRHRPPRLPRPRPRPVNDPRP | -0.0193 |
| RRIRVRPPRLPRPRPRPDKQPRP | -0.284 |
| RRIRNRPPRLPRPRPRPTPYPRP | -0.243 |
| RRIRQRPPRLPRPRPRPPWPPRP | 0.429 |
| RRIRWRPPRLPRPRPRPSCKPRP | -0.183 |
| RRIRYRPPRLPRPRPRPGNIPRP | -0.153 |
| RRIRSRPPRLPRPRPRPIQTPRP | -0.0822 |
| RRIRERPPRLPRPRPRPGPWPRP | 0.186 |
| RRIRQRPPRLPRPRPRPMFMPRP | -0.0688 |
| RRIRDRPPRLPRPRPRPVIGPRP | 0.16 |
| RRIRQRPPRLPRPRPRPANAPRP | -0.0699 |
| RRIRERPPRLPRPRPRPQWVPRP | 0.0428 |

| Sequence | shrunken log2 fold change |
| --- | --- |
| RRIRCRPPRLPRPRPRPREGPRP | 1.09 |
| RRIRNRPPRLPRPRPRPQENPRP | -0.151 |
| RRIRKRPPRLPRPRPRPSKKPRP | 0.0529 |
| RRIRPRPPRLPRPRPRPTPLPRP | 0.453 |
| RRIRNRPPRLPRPRPRPEDEPRP | -0.0168 |
| RRIRERPPRLPRPRPRPYPSPRP | -0.967 |
| RRIRRRPPRLPRPRPRPYPIPRP | -0.269 |
| RRIRMRPPRLPRPRPRPCLQPRP | -0.0178 |
| RRIRSRPPRLPRPRPRPMLAPRP | 0.244 |
| RRIRARPPRLPRPRPRPFEGPRP | 0.0201 |
| RRIRERPPRLPRPRPRPAMAPRP | 0.631 |
| RRIRRRPPRLPRPRPRPIAAPRP | 0.521 |
| RRIRIRPPRLPRPRPRPSRIPRP | -0.0712 |
| RRIRARPPRLPRPRPRPFDNPRP | 0.098 |
| RRIRMRPPRLPRPRPRPFGWPRP | 0.32 |
| RRIRCRPPRLPRPRPRPLGQPRP | 0.16 |
| RRIRFRPPRLPRPRPRPDLEPRP | -0.0811 |
| RRIRHRPPRLPRPRPRPPQKPRP | 0.0508 |
| RRIRIRPPRLPRPRPRPCNKPRP | -0.47 |
| RRIRCRPPRLPRPRPRPFCHPRP | -0.142 |
| RRIRRRPPRLPRPRPRPKAKPRP | 0.0788 |
| RRIRLRPPRLPRPRPRPDPLPRP | 0.172 |
| RRIRMRPPRLPRPRPRPHQLPRP | -0.0373 |
| RRIRRRPPRLPRPRPRPQTPPRP | 0.881 |
| RRIRGRPPRLPRPRPRPNSWPRP | 0.356 |
